# Experimental data reported in IntAct's records for PubMed 16294310.
# B1: Acyl carrier protein (Escherichia coli (strain K12)), P0A6A8 (parent)
# chain: MSTIEERVKKIIGEQLGVKQEEVTNNASFVEDLGADSLDTVELVMALEEEFDTEIPDEEAEKITTVQAAIDYINGHQA
# partner: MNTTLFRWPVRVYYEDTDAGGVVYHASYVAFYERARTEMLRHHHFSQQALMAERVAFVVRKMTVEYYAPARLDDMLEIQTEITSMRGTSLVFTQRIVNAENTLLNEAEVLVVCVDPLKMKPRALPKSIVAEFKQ
# Variants of: B1
# Settings: with ybgc_ecoli ybgC
row,effect of a mutation on the interaction,Variant
1,disrupting interaction,S37C
